From PMC5880107, “The Sequence-specific Peptide-binding Activity of the Protein Sulfide Isomerase AGR2 Directs Its Stable Binding to the Oncogenic Receptor EpCAM*^([image sbox.jpg])” (Molecular & Cellular Proteomics : MCP, 2018) come the findings set out here.

Sequences and labels used below:
B1: His-AGR2 WT (mature AGR2, amino acids 21-175, N-terminal 6xHis tag; plasmid pmAGR2) [human] / His-EpEX-CO, extracellular domain of EpCAM (amino acids 24-265), N-terminal 6xHis tag [human] (parent complex)
chain 1: RDTTVKPGAKKDTKDSRPKLPQTLSRGWGDQLIWTQTYEEALYKSKTSSKPLMIIHHLDECPHSQALKKVFAENKEIQKLAEQFVLLNLVYETTDKHLSPDGQYVPRIMFVDPSLTVRADITGRYSNRLYAYEPADTALLLDNMKKALKLLKTEL
chain 2: QEECVCENYKLAVNCFVNNNRQCQCTSVGAQNTVICSKLAAKCLVMKAEMNGSKLGRRAKPEGALQNNDGLYDPDCDESGLFKAKQCNGTSMCWCVNTAGVRRTDKDTEITCSERVRTYWIIIELKHKAREKPYDSKSLRTALQKEITTRYQLDPKFITSILYENNVITIDLVQNSSQKTQNDVDIADVAYYFEKDVKGESLFHSKKMDLTVNGEQLDLDPGQTLIYYVDEKAPEFSMQGLK
B2: wt-peptide PTTIYY (non-biotinylated hexapeptide) / His-AGR2 WT (mature AGR2, amino acids 21-175, N-terminal 6xHis tag; plasmid pmAGR2) [human] (parent complex)
chain 1: PTTIYY
chain 2: B1 chain 1

The variants in the first experiment derive from B1. In words: ELISA (His-EpCAM solid phase; His-AGR2 mobile phase); point at 0.5 μg AGR2 (highest dose of the titration); no DTT; read off a plot. In general terms: In an ELISA, binding on a coated surface is turned into a signal by an enzyme label.
Consider chain 1 P113A, for which the response was about 150 RLU.

On to chain 1 S114A, for which the response was about 160 RLU.

Take chain 1 D112A: the response is about 140 RLU.

Variants of B1 are the subject of a further experiment. The experiment can be described thus: ELISA (His-EpCAM solid phase; His-AGR2 mobile phase); point at 0.5 μg AGR2 (highest dose of the titration); 1 mm DTT at the AGR2-binding stage; read off a plot.
For chain 1 P113A, the response was about 35 RLU.

Take chain 1 S114A: the response was about 160 RLU.

Turning to chain 1 D112A, the response was about 110 RLU.

The variants in the next experiment derive from B2. The experiment can be described thus: competition ELISA (AGR2 binding to immobilised biotinylated peptide A4 with free competitor peptide); 1 μg AGR2; 100 ng competitor peptide; RLU is AGR2 bound to peptide A4, so lower RLU = stronger competitor binding; DMSO (no competitor) est. 79; read off a plot.
For the variant chain 1 T2A, the response was about 84 RLU.

As to chain 1 T2S, the response was about 83 RLU.

Consider chain 1 T2C, for which the response was about 80 RLU.

Regarding chain 1 Y5W, the response was about 20 RLU.

Regarding chain 1 Y5F, the response is about 40 RLU.

Take chain 1 Y5A: the response was about 84 RLU.

chain 1 P1G: the response is about 7.5 RLU.

As for chain 1 P1W, the response was about 9 RLU.

Regarding chain 1 P1V, the response was about 11 RLU.

As to chain 1 P1M, the response is about 17 RLU.

As for chain 1 P1I, the response is about 7.5 RLU.

For the variant chain 1 P1A, the response is about 6 RLU.

In the case of chain 1 P1F, the response was about 6 RLU.

For the variant chain 1 P1L, the response was about 15 RLU.

As for chain 1 I4A, the response was about 83 RLU.

As to chain 1 I4L, the response was about 44 RLU.

With chain 1 I4V, the response was about 55 RLU.

For chain 1 I4M, the response was about 80 RLU.

On to chain 1 Y6F, for which the response is about 25 RLU.

For the variant chain 1 Y6A, the response is about 60 RLU.

Take chain 1 T3G: the response was about 12 RLU.

As to chain 1 T3A, the response is about 6 RLU.

Take chain 1 T3V: the response is about 35 RLU.

With chain 1 T3M, the response was about 8 RLU.

Regarding chain 1 T3I, the response was about 75 RLU.

Regarding chain 1 T3L, the response was about 66 RLU.

With chain 1 T3S, the response was about 7 RLU.
